Experimental findings from patent publication US20250066503A1, “CELL INJURY INDUCING THERAPEUTIC DRUG FOR USE IN CANCER THERAPY” (CHUGAI SEIYAKU KABUSHIKI KAISHA, priority 2016, published 2025) are described below.

The Kd is the concentration at which binding is half-saturated. High values mean weaker binding, low ones tighter binding.

The test has as its target T1, human GPC3 (human, UniProt P51654 25-563).
T1 construct: range 25-563; soluble analyte; also called soluble human GPC3; glypican 3
The experiment in a line: SPR. (SPR reads the build-up and loss of mass on a sensor chip optically.)

T1 sequence (P51654 25-563 limits assumed): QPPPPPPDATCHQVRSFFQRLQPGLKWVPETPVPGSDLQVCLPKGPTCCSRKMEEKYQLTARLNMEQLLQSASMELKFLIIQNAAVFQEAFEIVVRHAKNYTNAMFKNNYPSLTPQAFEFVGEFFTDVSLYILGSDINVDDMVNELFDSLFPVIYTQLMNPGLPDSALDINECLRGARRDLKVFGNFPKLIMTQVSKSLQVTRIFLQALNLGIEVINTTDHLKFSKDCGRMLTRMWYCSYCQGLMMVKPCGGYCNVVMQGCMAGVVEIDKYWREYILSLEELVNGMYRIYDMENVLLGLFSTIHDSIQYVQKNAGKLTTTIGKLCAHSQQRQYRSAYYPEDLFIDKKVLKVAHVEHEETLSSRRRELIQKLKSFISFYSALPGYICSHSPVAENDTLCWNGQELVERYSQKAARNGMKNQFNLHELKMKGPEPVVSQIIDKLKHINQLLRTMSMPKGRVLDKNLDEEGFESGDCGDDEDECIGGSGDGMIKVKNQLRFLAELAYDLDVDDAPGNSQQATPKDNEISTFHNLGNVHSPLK

B1: H0610-G1dh/none-Hi-Kn010G3/L0155-k0 (antibody, V domains shown)
VH: QVQLVQSGAEVKKPGASVKVSCKASGYTFTDYEMHWIRQPPGQGLEWIGAIDGKTPDTAYSQKFKGRVTLTADKSTSTAYMELSSLTSEDTAVYYCTRFYSYTYWGQGTLVTVSS
VL: DIVMTQSPLSLPVTPGEPASISCRSSQSLVHSNRNTYLHWYQQKPGQAPRLLIYKVSNRFSGVPDRFSGSGSGTDFTLKISRVEAEDVGVYYCLQGTQVPYTFGQGTKLEIK
notes: one-arm
Molecule B1 showed a Kd of 1.28 nM.

B2: H0610-G1dh/none-Hi-Kn010G3/L0205-k0 (antibody, V domains shown)
VH: QVQLVQSGAEVKKPGASVKVSCKASGYTFTDYEMHWIRQPPGQGLEWIGAIDGKTPDTAYSQKFKGRVTLTADKSTSTAYMELSSLTSEDTAVYYCTRFYSYTYWGQGTLVTVSS
VL: DIVMTQSPLSLPVTPGEPASISCRSSQSPVHSNRNTYLHWYQQKPGQAPRLLIYKVSNRFWGVPDRFSGSGSGTDFTLKISRVEAEDVGVYYCGQGTQVPYTFGQGTKLEIK
notes: one-arm
With B2, the Kd worked out at 1.01 nM.

B3: H0610-G1dh/none-Hi-Kn010G3/L0217-k0 (antibody, V domains shown)
VH: QVQLVQSGAEVKKPGASVKVSCKASGYTFTDYEMHWIRQPPGQGLEWIGAIDGKTPDTAYSQKFKGRVTLTADKSTSTAYMELSSLTSEDTAVYYCTRFYSYTYWGQGTLVTVSS
VL: DIVMTQSPLSLPVTPGEPASISCRPSQSLVHSNRNTYLHWYQQKPGQAPRLLIYKVSNRFRGVPDRFSGSGSGTDFTLKISRVEAEDVGVYYCGQGTQVPYTFGQGTKLEIK
notes: one-arm
As for B3, the Kd amounted to 1.79 nM.

B4: H0610-G1dh/none-Hi-Kn010G3/L0187-k0 (antibody, V domains shown)
VH: QVQLVQSGAEVKKPGASVKVSCKASGYTFTDYEMHWIRQPPGQGLEWIGAIDGKTPDTAYSQKFKGRVTLTADKSTSTAYMELSSLTSEDTAVYYCTRFYSYTYWGQGTLVTVSS
VL: DIVMTQSPLSLPVTPGEPASISCRSSQSLVHSNRNTYLHWYQQKPGQAPRLLIYKVSNRFSGVPDRFSGSGSGTDFTLKISRVEAEDVGVYYCGQGTQYPYTFGQGTKLEIK
notes: one-arm
Molecule B4 showed a Kd of 4.92 nM.

B5: H0610-G1dh/none-Hi-Kn010G3/L0173-k0 (antibody, V domains shown)
VH: QVQLVQSGAEVKKPGASVKVSCKASGYTFTDYEMHWIRQPPGQGLEWIGAIDGKTPDTAYSQKFKGRVTLTADKSTSTAYMELSSLTSEDTAVYYCTRFYSYTYWGQGTLVTVSS
VL: DIVMTQSPLSLPVTPGEPASISCRSSQSLVHSNRNTYLHWYQQKPGQAPRLLIYKVSNRFSGVPDRFSGSGSGTDFTLKISRVEAEDVGVYYCGQGTQFPYTFGQGTKLEIK
notes: one-arm
In turn, B5 registered a Kd of 2.83 nM.

B6: H0610-G1dh/none-Hi-Kn010G3/L0216-k0 (antibody, V domains shown)
VH: QVQLVQSGAEVKKPGASVKVSCKASGYTFTDYEMHWIRQPPGQGLEWIGAIDGKTPDTAYSQKFKGRVTLTADKSTSTAYMELSSLTSEDTAVYYCTRFYSYTYWGQGTLVTVSS
VL: DIVMTQSPLSLPVTPGEPASISCRSSQPLVHSNRNTYLHWYQQKPGQAPRLLIYKVSNRFRGVPDRFSGSGSGTDFTLKISRVEAEDVGVYYCGQGTQVPYTFGQGTKLEIK
notes: one-arm
The molecule B6 displayed a Kd of 1.86 nM.

B7: H0610-G1dh/none-Hi-Kn010G3/L0213-k0 (antibody, V domains shown)
VH: QVQLVQSGAEVKKPGASVKVSCKASGYTFTDYEMHWIRQPPGQGLEWIGAIDGKTPDTAYSQKFKGRVTLTADKSTSTAYMELSSLTSEDTAVYYCTRFYSYTYWGQGTLVTVSS
VL: DIVMTQSPLSLPVTPGEPASISCRSSQSPVHSNRNTYIHWYQQKPGQAPRLLIYKVSNRFRGVPDRFSGSGSGTDFTLKISRVEAEDVGVYYCGQGTQVPYTFGQGTKLEIK
notes: one-arm
B7 showed a Kd of 1.25 nM.

B8: H0610-G1dh/none-Hi-Kn010G3/L0163-k0 (antibody, V domains shown)
VH: QVQLVQSGAEVKKPGASVKVSCKASGYTFTDYEMHWIRQPPGQGLEWIGAIDGKTPDTAYSQKFKGRVTLTADKSTSTAYMELSSLTSEDTAVYYCTRFYSYTYWGQGTLVTVSS
VL: DIVMTQSPLSLPVTPGEPASISCRSSQSLVHSNRNTYLHWYQQKPGQAPRLLIYKVSNRFSGVPDRFSGSGSGTDFTLKISRVEAEDVGVYYCYQGTQVPYTFGQGTKLEIK
notes: one-arm
For B8, the affinity, expressed as Kd, was 3.38 nM.

B9: H0610-G1dh/none-Hi-Kn010G3/L0215-k0 (antibody, V domains shown)
VH: QVQLVQSGAEVKKPGASVKVSCKASGYTFTDYEMHWIRQPPGQGLEWIGAIDGKTPDTAYSQKFKGRVTLTADKSTSTAYMELSSLTSEDTAVYYCTRFYSYTYWGQGTLVTVSS
VL: DIVMTQSPLSLPVTPGEPASISCRSSQPPVHSNRNTYIHWYQQKPGQAPRLLIYKVSNRFSGVPDRFSGSGSGTDFTLKISRVEAEDVGVYYCGQGTQVPYTFGQGTKLEIK
notes: one-arm
Molecule B9 came in with a Kd of 1.64 nM.

B10: H0610-G1dh/none-Hi-Kn010G3/L0167-k0 (antibody, V domains shown)
VH: QVQLVQSGAEVKKPGASVKVSCKASGYTFTDYEMHWIRQPPGQGLEWIGAIDGKTPDTAYSQKFKGRVTLTADKSTSTAYMELSSLTSEDTAVYYCTRFYSYTYWGQGTLVTVSS
VL: DIVMTQSPLSLPVTPGEPASISCRSSQSLVHSNRNTYLHWYQQKPGQAPRLLIYKVSNRFSGVPDRFSGSGSGTDFTLKISRVEAEDVGVYYCGQSTQVPYTFGQGTKLEIK
notes: one-arm
Consider B10, for which binding was characterised by a dissociation constant (Kd) of 0.211 nM.

B11: H0610-G1dh/none-Hi-Kn010G3/L0168-k0 (antibody, V domains shown)
VH: QVQLVQSGAEVKKPGASVKVSCKASGYTFTDYEMHWIRQPPGQGLEWIGAIDGKTPDTAYSQKFKGRVTLTADKSTSTAYMELSSLTSEDTAVYYCTRFYSYTYWGQGTLVTVSS
VL: DIVMTQSPLSLPVTPGEPASISCRSSQSLVHSNRNTYLHWYQQKPGQAPRLLIYKVSNRFSGVPDRFSGSGSGTDFTLKISRVEAEDVGVYYCGQTTQVPYTFGQGTKLEIK
notes: one-arm
Take B11: the Kd came out at 0.699 nM.

B12: H0610-G1dh/none-Hi-Kn010G3/L0175-k0 (antibody, V domains shown)
VH: QVQLVQSGAEVKKPGASVKVSCKASGYTFTDYEMHWIRQPPGQGLEWIGAIDGKTPDTAYSQKFKGRVTLTADKSTSTAYMELSSLTSEDTAVYYCTRFYSYTYWGQGTLVTVSS
VL: DIVMTQSPLSLPVTPGEPASISCRSSQSLVHSNRNTYLHWYQQKPGQAPRLLIYKVSNRFSGVPDRFSGSGSGTDFTLKISRVEAEDVGVYYCGQGTQHPYTFGQGTKLEIK
notes: one-arm
Molecule B12 yielded a Kd of 3.84 nM.

B13: H0610-G1dh/none-Hi-Kn010G3/L0157-k0 (antibody, V domains shown)
VH: QVQLVQSGAEVKKPGASVKVSCKASGYTFTDYEMHWIRQPPGQGLEWIGAIDGKTPDTAYSQKFKGRVTLTADKSTSTAYMELSSLTSEDTAVYYCTRFYSYTYWGQGTLVTVSS
VL: DIVMTQSPLSLPVTPGEPASISCRSSQSLVHSNRNTYLHWYQQKPGQAPRLLIYKVSNRFSGVPDRFSGSGSGTDFTLKISRVEAEDVGVYYCNQGTQVPYTFGQGTKLEIK
notes: one-arm
In turn, B13 gave a Kd of 2.6 nM.

B14: H0610-G1dh/none-Hi-Kn010G3/L0180-k0 (antibody, V domains shown)
VH: QVQLVQSGAEVKKPGASVKVSCKASGYTFTDYEMHWIRQPPGQGLEWIGAIDGKTPDTAYSQKFKGRVTLTADKSTSTAYMELSSLTSEDTAVYYCTRFYSYTYWGQGTLVTVSS
VL: DIVMTQSPLSLPVTPGEPASISCRSSQSLVHSNRNTYLHWYQQKPGQAPRLLIYKVSNRFSGVPDRFSGSGSGTDFTLKISRVEAEDVGVYYCGQGTQNPYTFGQGTKLEIK
notes: one-arm
In turn, B14 had a Kd of 4.48 nM.

B15: H0610-G1dh/none-Hi-Kn010G3/L0200-k0 (antibody, V domains shown)
VH: QVQLVQSGAEVKKPGASVKVSCKASGYTFTDYEMHWIRQPPGQGLEWIGAIDGKTPDTAYSQKFKGRVTLTADKSTSTAYMELSSLTSEDTAVYYCTRFYSYTYWGQGTLVTVSS
VL: DIVMTQSPLSLPVTPGEPASISCRPSQSPVHSNRNTYLHWYQQKPGQAPRLLIYKVSNRFSGVPDRFSGSGSGTDFTLKISRVEAEDVGVYYCGQGTQVPYTFGQGTKLEIK
notes: one-arm
Molecule B15 had a Kd of 1.04 nM.

B16: H0610-G1dh/none-Hi-Kn010G3/L0214-k0 (antibody, V domains shown)
VH: QVQLVQSGAEVKKPGASVKVSCKASGYTFTDYEMHWIRQPPGQGLEWIGAIDGKTPDTAYSQKFKGRVTLTADKSTSTAYMELSSLTSEDTAVYYCTRFYSYTYWGQGTLVTVSS
VL: DIVMTQSPLSLPVTPGEPASISCRSSQPPVHSNRNTYLHWYQQKPGQAPRLLIYKVSNRFRGVPDRFSGSGSGTDFTLKISRVEAEDVGVYYCGQGTQVPYTFGQGTKLEIK
notes: one-arm
Turning to B16, binding was characterised by a dissociation constant (Kd) of 0.657 nM.

B17: H0610-G1dh/none-Hi-Kn010G3/L0202-k0 (antibody, V domains shown)
VH: QVQLVQSGAEVKKPGASVKVSCKASGYTFTDYEMHWIRQPPGQGLEWIGAIDGKTPDTAYSQKFKGRVTLTADKSTSTAYMELSSLTSEDTAVYYCTRFYSYTYWGQGTLVTVSS
VL: DIVMTQSPLSLPVTPGEPASISCRSSQSPVHSNRWTYLHWYQQKPGQAPRLLIYKVSNRFSGVPDRFSGSGSGTDFTLKISRVEAEDVGVYYCGQGTQVPYTFGQGTKLEIK
notes: one-arm
For B17, the affinity, expressed as Kd, was 1.22 nM.

B18: H0610-G1dh/none-Hi-Kn010G3/L0186-k0 (antibody, V domains shown)
VH: QVQLVQSGAEVKKPGASVKVSCKASGYTFTDYEMHWIRQPPGQGLEWIGAIDGKTPDTAYSQKFKGRVTLTADKSTSTAYMELSSLTSEDTAVYYCTRFYSYTYWGQGTLVTVSS
VL: DIVMTQSPLSLPVTPGEPASISCRSSQSLVHSNRNTYLHWYQQKPGQAPRLLIYKVSNRFSGVPDRFSGSGSGTDFTLKISRVEAEDVGVYYCGQGTQWPYTFGQGTKLEIK
notes: one-arm
Take B18: the Kd was determined as 1.08 nM.

B19: H0610-G1dh/none-Hi-Kn010G3/L0160-k0 (antibody, V domains shown)
VH: QVQLVQSGAEVKKPGASVKVSCKASGYTFTDYEMHWIRQPPGQGLEWIGAIDGKTPDTAYSQKFKGRVTLTADKSTSTAYMELSSLTSEDTAVYYCTRFYSYTYWGQGTLVTVSS
VL: DIVMTQSPLSLPVTPGEPASISCRSSQSLVHSNRNTYLHWYQQKPGQAPRLLIYKVSNRFSGVPDRFSGSGSGTDFTLKISRVEAEDVGVYYCTQGTQVPYTFGQGTKLEIK
notes: one-arm
The molecule B19 showed a Kd of 2.12 nM.

B20: H0610-G1dh/none-Hi-Kn010G3/L0181-k0 (antibody, V domains shown)
VH: QVQLVQSGAEVKKPGASVKVSCKASGYTFTDYEMHWIRQPPGQGLEWIGAIDGKTPDTAYSQKFKGRVTLTADKSTSTAYMELSSLTSEDTAVYYCTRFYSYTYWGQGTLVTVSS
VL: DIVMTQSPLSLPVTPGEPASISCRSSQSLVHSNRNTYLHWYQQKPGQAPRLLIYKVSNRFSGVPDRFSGSGSGTDFTLKISRVEAEDVGVYYCGQGTQPPYTFGQGTKLEIK
notes: one-arm
B20 returned a Kd of 3.51 nM.

B21: H0610-G1dh/none-Hi-Kn010G3/L0161-k0 (antibody, V domains shown)
VH: QVQLVQSGAEVKKPGASVKVSCKASGYTFTDYEMHWIRQPPGQGLEWIGAIDGKTPDTAYSQKFKGRVTLTADKSTSTAYMELSSLTSEDTAVYYCTRFYSYTYWGQGTLVTVSS
VL: DIVMTQSPLSLPVTPGEPASISCRSSQSLVHSNRNTYLHWYQQKPGQAPRLLIYKVSNRFSGVPDRFSGSGSGTDFTLKISRVEAEDVGVYYCVQGTQVPYTFGQGTKLEIK
notes: one-arm
In the case of B21, binding was characterised by a dissociation constant (Kd) of 0.973 nM.
